According to US12295987B2, “Method of using a GIP/GLP1 co-agonist for diabetes” (Eli Lilly and Company, priority 2018, dated 2025):
Numbered stars: 1 amine (or outer) side, 2 acyl side, 3 side chain; on linkers, the order of the positions; unused ones are H or OH. Square brackets hold non-standard residues; d marks the D form. Side chains are listed from the residue outwards. Ends that are not written are not given here. * marks the point of attachment. C20 diacid = O=C(O)CCCCCCCCCCCCCCCCCCC(=O)*; γGlu = O=C(O)[C@H](CCC(=O)[*:2])N[*:1]; AEEA = NCCOCCOCC(=O)O; Aib = CC(C)(N)C(=O)O

Biological target: T1, human gastric inhibitory peptide receptor (hGIPR) (Homo sapiens, UniProt P48546)
T1 construct: expressed in transfected cells; host or cells: HEK293
T1 sequence (P48546 22-466): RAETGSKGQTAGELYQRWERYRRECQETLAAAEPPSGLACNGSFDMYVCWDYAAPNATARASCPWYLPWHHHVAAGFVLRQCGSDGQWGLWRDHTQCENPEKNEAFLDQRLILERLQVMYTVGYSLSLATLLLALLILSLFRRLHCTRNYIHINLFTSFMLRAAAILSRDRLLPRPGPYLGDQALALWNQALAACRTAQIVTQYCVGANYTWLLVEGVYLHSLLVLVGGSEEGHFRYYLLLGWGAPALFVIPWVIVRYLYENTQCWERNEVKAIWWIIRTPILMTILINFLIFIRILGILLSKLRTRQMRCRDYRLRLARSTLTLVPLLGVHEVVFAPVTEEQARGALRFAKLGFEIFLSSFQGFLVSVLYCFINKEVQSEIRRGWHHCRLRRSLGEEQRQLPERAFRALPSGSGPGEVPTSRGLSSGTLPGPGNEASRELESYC
Assay: cAMP pharmacological functional assay in presence of 0.1% casein, hGIPR
Assay type: cell-based
Conditions: ratio of hGIPR to hGLP1R cAMP EC50 ratios

Substance | [hGIPR/hGLP1R] EC50 Ratio
Y-Pro-EGTFTSDYSILLDKK((2-[2-(2-Amino-ethoxy)-ethoxy]-acetyl)2-(γGlu)-CO—(CH2)18—CO2H)AQ-Aib-AFIEYLIEGGPSSGAPPPS-NH2 (YPEGTFTSDYSILLDKK([AEEA-AEEA-γGlu-C20 diacid])AQ[Aib]AFIEYLIEGGPSSGAPPPS-NH2; N-terminus assumed; SMILES CC[C@H](C)[C@H](NC(=O)[C@H](CC(C)C)NC(=O)[C@H](Cc1ccc(O)cc1)NC(=O)[C@H](CCC(=O)O)NC(=O)[C@@H](NC(=O)[C@H](Cc1ccccc1)NC(=O)[C@H](C)NC(=O)C(C)(C)NC(=O)[C@H](CCC(N)=O)NC(=O)[C@H](C)NC(=O)[C@H](CCCCNC(=O)COCCOCCNC(=O)COCCOCCNC(=O)CC[C@H](NC(=O)CCCCCCCCCCCCCCCCCCC(=O)O)C(=O)O)NC(=O)[C@H](CCCCN)NC(=O)[C@H](CC(=O)O)NC(=O)[C@H](CC(C)C)NC(=O)[C@H](CC(C)C)NC(=O)[C@@H](NC(=O)[C@H](CO)NC(=O)[C@H](Cc1ccc(O)cc1)NC(=O)[C@H](CC(=O)O)NC(=O)[C@H](CO)NC(=O)[C@@H](NC(=O)[C@H](Cc1ccccc1)NC(=O)[C@@H](NC(=O)CNC(=O)[C@H](CCC(=O)O)NC(=O)[C@@H]1CCCN1C(=O)[C@@H](N)Cc1ccc(O)cc1)[C@@H](C)O)[C@@H](C)O)[C@@H](C)CC)[C@@H](C)CC)C(=O)N[C@@H](CCC(=O)O)C(=O)NCC(=O)NCC(=O)N1CCC[C@H]1C(=O)N[C@@H](CO)C(=O)N[C@@H](CO)C(=O)NCC(=O)N[C@@H](C)C(=O)N1CCC[C@H]1C(=O)N1CCC[C@H]1C(=O)N1CCC[C@H]1C(=O)N[C@@H](CO)C(N)=O) [Peptide 88] | 4.27
Y-Aib-EGT-αMeF(2F)-TSDYSI-αMeL-LDKK((2-[2-(2-Amino-ethoxy)-ethoxy]-acetyl)-(γGlu)-(2-[2-(2-Amino-ethoxy)-ethoxy]-acetyl)-CO—(CH2)18—CO2H)AQ-Aib-EFI-(D-Glu)-YLIEGGPSSGAPPPS-NH2 (YXEGTXTSDYSIXLDKKAQXEFIXYLIEGGPSSGAPPPS; Aib, αMeF(2F), αMeL, D-Glu; lipidated K; amide; (2)..(2) Xaa at position 2 is Aib; (6)..(6) Xaa at position 6 is alpha-methyl-Phe(2F); (13)..(13) Xaa at position 13 is alpha-methyl-Leu; MOD_RES (17)..(17) Lys at position 17 is chemically modified by conjugation of the epsilon-amino group of the Lys side chain with (2-[2-(2-Amino-ethoxy)-ethoxy]-acetyl)-(gamma-Glu)-(2-[2-(2-Amino- ethoxy)-ethoxy]-acetyl)-CO-(CH2)18-CO2H; (20)..(20) Xaa at positi) [Peptide 211] | 3.59
Y-Aib-EGT-αMeF(2F)-TSDYSI-αMeL-LDEK((2-[2-(2-Amino-ethoxy)-ethoxy]-acetyl)2-(γGlu)-CO—(CH2)16—CO2H)AQ-Aib-EFI-(D-Glu)-YLIEGGPSSG-NH2 (YXEGTXTSDYSIXLDEKAQXEFIXYLIEGGPSSG; Aib, αMe, D-Glu, C18 diacid lipidation, C-amide; (2)..(2) Xaa at position 2 is Aib; (6)..(6) Xaa at position 6 is alpha-methyl-Phe(2F); (13)..(13) Xaa at position 13 is alpha-methyl-Leu; MOD_RES (17)..(17) Lys at position 17 is chemically modified by conjugation of the epsilon-amino group of the Lys side chain with (2-[2-(2-amino-ethoxy)-ethoxy]-acetyl)2-(gamma-Glu)-CO-(CH2)16- CO2H; (20)..(20) Xaa at position 20 is Aib; (24)..(24) Xaa at positi) [Peptide 219] | 5.69
